In this assay the target is High-mannose IgG1 antibody (human). Nature of the assay: SPR. On the technique in general: In SPR one partner is held on a chip, and binding of the other changes the refractive index at the surface.

A word on the Kd: it is the constant that tells how readily two partners part at equilibrium. A high value points to weaker binding.

“EndoS2 E186L (catalytically inactive EndoS2 variant) (from UniProt T1WGN1 44-843) (enzyme)” had a Kd greater than 100 µM.

The values are drawn from article PMC6439443.
